Target: K48-linked pentaubiquitin (UniProt P0CG48)

- Km of steady-state kinetics of cleavage of fluorescently labeled K48-linked pentaUb, against MINDY1 WT: 3 fold lower
Substance: MINDY1 P138A (residues 110-384) (from UniProt Q8N5J2 110-384) (domain or fragment)

From paper PMC8550791
